Measured values as given in US20150344570A1 (published 2015).
Numbering of substitutions follows the chain as printed. Names and notes keep the numbering of the source.

T1: FcgRIIb (FcγRIIb) extracellular domain with C-terminal His tag (human, UniProt P31994 43-217)
T1 construct: extracellular domain; not shown: His tag attached to the C terminus
T1 sequence (looked up): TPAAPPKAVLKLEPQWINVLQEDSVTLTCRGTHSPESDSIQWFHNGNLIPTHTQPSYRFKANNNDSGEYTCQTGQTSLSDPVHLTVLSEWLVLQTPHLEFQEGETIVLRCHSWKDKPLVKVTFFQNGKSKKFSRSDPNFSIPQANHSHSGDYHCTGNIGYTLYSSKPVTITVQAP

B1: H240-Kn061/H240-Hl071/L73-k0 variant with W236Y in H240-Kn061 (antibody, human IgG1, kappa)
heavy 1: QDQLVQSGAEVKKPGASVKVSCKASGFNIKDTYIQWVRQAPGQGLEWMGRIDPLRKQTKYREKFEGRVTITADTSTNTAYMELSSLRSEDTAVYYCVRSGREFDYWGQGTLVTVSSASTKGPSVFPLAPSSKSTSGGTAALGCLVKDYFPEPVTVSWNSGALTSGVHTFPAVLQSSGLYSLSSVVTVPSSSLGTQTYICNVNHKPSNTKVDKKVEPKSCDKTHTCPPCPAPEYYYGPSVFLFPPKPKDTLMISRTPEVTCVVVDVSDEDPEVKFNWYVDGVEVHNAKTKPREEQYNATYRVVSVLTVLHQDWLNGKEYKCKVSNKALPAPIEKTISKAKGQPREPQVCTLPPSRDELTKNQVSLWCLVKGFYPSDIAVEWESNGQPENNYKTTPPVLDSDGSFFLYSKLTVDKSRWQQGNVFSCSVMHEALHNHYTQKSLSLSP
heavy 2: QDQLVQSGAEVKKPGASVKVSCKASGFNIKDTYIQWVRQAPGQGLEWMGRIDPLRKQTKYREKFEGRVTITADTSTNTAYMELSSLRSEDTAVYYCVRSGREFDYWGQGTLVTVSSASTKGPSVFPLAPSSKSTSGGTAALGCLVKDYFPEPVTVSWNSGALTSGVHTFPAVLQSSGLYSLSSVVTVPSSSLGTQTYICNVNHKPSNTKVDKKVEPKSCDKTHTCPPCPAPELLGGPSVFLFPPKPKDTLMISRTPEVTCVVVDVSHEDPEVKFNWYVDGVEVHNAKTKPREEQYNSTYRVVSVLTVLHQDWLNGKEYKCKVSNDALPMPIEETISKAKGQPREPQVYTLPPSRCELTKNQVSLSCAVKGFYPSDIAVEWESNGQPENNYKTTPPVLDSDGSFFLVSKLTVDKSRWQQGNVFSCSVMHEALHNHYTQKSLSLSP
light: DIQMTQSPSSLSASVGDRVTITCRASQDIHKYIAWYQQKPGQAPRLLIQYTSTLQPGVPSRFSGSGSGTDYTFTISSLQPEDIATYYCLQYEQLRTFGGGTKVEIKRTVAAPSVFIFPPSDEQLKSGTASVVCLLNNFYPREAKVQWKVDNALQSGNSQESVTEQDSKDSTYSLSSTLTLSKADYEKHKVYACEVTHQGLSSPVTKSFNRGEC
notes: anti-epiregulin heterodimerized IgG1; also called H240-Kn061 W236Y
B2: H240-Kn061/H240-Hl071/L73-k0 variant with Y235L in H240-Kn061 (antibody, human IgG1, kappa)
heavy 1: B1 heavy 1 with Y234L, Y235W
heavy 2: B1 heavy 2
light: B1 light
notes: anti-epiregulin heterodimerized IgG1; also called H240-Kn061 Y235L
B3: H240-Kn061/H240-Hl071/L73-k0 variant with Y234H in H240-Kn061 (antibody, human IgG1, kappa)
heavy 1: B1 heavy 1 with Y233H, Y235W
heavy 2: B1 heavy 2
light: B1 light
notes: anti-epiregulin heterodimerized IgG1; also called H240-Kn061 Y234H
B4: H240-Kn061/H240-Hl071/L73-k0 variant with Y234A in H240-Kn061 (antibody, human IgG1, kappa)
heavy 1: B1 heavy 1 with Y233A, Y235W
heavy 2: B1 heavy 2
light: B1 light
notes: anti-epiregulin heterodimerized IgG1; also called H240-Kn061 Y234A
B5: H240-Kn061/H240-Hl071/L73-k0 variant with Y235F in H240-Kn061 (antibody, human IgG1, kappa)
heavy 1: B1 heavy 1 with Y234F, Y235W
heavy 2: B1 heavy 2
light: B1 light
notes: anti-epiregulin heterodimerized IgG1; also called H240-Kn061 Y235F
B6: H240-Kn061/H240-Hl071/L73-k0 variant with Y234G in H240-Kn061 (antibody, human IgG1, kappa)
heavy 1: B1 heavy 1 with Y233G, Y235W
heavy 2: B1 heavy 2
light: B1 light
notes: anti-epiregulin heterodimerized IgG1; also called H240-Kn061 Y234G
B7: H240-Kn061/H240-Hl071/L73-k0 variant with Y235E in H240-Kn061 (antibody, human IgG1, kappa)
heavy 1: B1 heavy 1 with Y234E, Y235W
heavy 2: B1 heavy 2
light: B1 light
notes: anti-epiregulin heterodimerized IgG1; also called H240-Kn061 Y235E
B8: H240-Kn061/H240-Hl071/L73-k0 variant with Y234S in H240-Kn061 (antibody, human IgG1, kappa)
heavy 1: B1 heavy 1 with Y233S, Y235W
heavy 2: B1 heavy 2
light: B1 light
notes: anti-epiregulin heterodimerized IgG1; also called H240-Kn061 Y234S

Each binder was assayed against T2, FcgRIIIa V (FcγRIIIa type V) extracellular domain with C-terminal His tag (human, UniProt P08637 17-208) (assay: SPR (Biacore); KD of H240-Kn061/H240-Hl071/L73-k0 divided by KD of the variant).
T2 construct: extracellular domain; also called FcγRIIIa V; not shown: His tag attached to the C terminus
T2 sequence (P08637 17-208 F176V limits assumed): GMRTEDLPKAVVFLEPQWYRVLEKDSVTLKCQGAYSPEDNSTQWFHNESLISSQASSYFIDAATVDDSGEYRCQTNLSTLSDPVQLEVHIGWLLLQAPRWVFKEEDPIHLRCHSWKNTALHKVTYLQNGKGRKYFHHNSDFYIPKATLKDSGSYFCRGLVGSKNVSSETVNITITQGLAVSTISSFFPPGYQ
Protocol: (§1) The antibodies were assessed for the binding to each FcgR. […] The resultant value was defined as relative KD, and used as an assessment indicator.
(§2) Analysis of interaction between objective antibody and the FcγR was carried out using Biacore T100 (GE Healthcare), Biacore T200, Biacore A100, and Biacore 4000. HBS-EP+ (GE Healthcare) was used as the running buffer, and the measurement temperature was set to 25° C. Chips produced by immobilizing the antigen peptide by the amine coupling method to a Series S sensor Chip CM5 (GE Healthcare), chips produced by allowing preliminarily biotinylated antigen peptides to interact with and immobilize onto a Series S Sensor Chip SA (certified) (GE Healthcare), chips produced by immobilizing Protein L (ACTIGEN, BioVision) to Series S Sencor Chip CM5 (GE Healthcare), or chips produced by immobilizing Protein A/G (Thermo Scientific) to Series S Sencor Chip CM5 (GE Healthcare) were used. Antibodies of interest were captured onto these chips, and allowed to interact to each FcγR diluted with running buffer.

relative KD | Binder
1.2 ratio | B1
1.5 ratio | B2
0.9 ratio | B3
0.9 ratio | B4
1.5 ratio | B5
0.9 ratio | B6
3.2 ratio | B7
0.9 ratio | B8

The binders below were run against T3, FcgRIIIa F (FcγRIIIa type F) extracellular domain with C-terminal His tag (human, UniProt P08637 17-208) in the same assay as above.
T3 construct: extracellular domain; also called FcγRIIIa F; 3aF; not shown: His tag attached to the C terminus
T3 sequence (P08637 17-208): as the sequence (P08637 17-208 F176V limits assumed) above, with V160F counted along it
Protocol: as §1, §2

relative KD | Binder
0.8 ratio | B1
1.8 ratio | B2
0.8 ratio | B3
0.8 ratio | B4
1.3 ratio | B5
0.8 ratio | B6
2.2 ratio | B7
0.9 ratio | B8

These binders were tested against T1, FcgRIIb (FcγRIIb) extracellular domain … in the same assay as above.
Protocol: as §1, §2

relative KD | Binder
0.8 ratio | B1
0.9 ratio | B2
1.3 ratio | B3
1.2 ratio | B4
1.2 ratio | B5
0.9 ratio | B6
0.8 ratio | B7
1 ratio | B8
